Experimental data reported in US20240294593A1 (Genentech, published 2024).
Where a chain is given by its changes, count along the chain named. In names and notes the source's numbering stands.

B1: H1_L1.133 (antibody, V domains shown)
VH: EVQLVESGGGLVQPGGSLRLSCAASGFTFSSFGMHWVRQAPGKGLEWVSYISSGSSIIYYADSVKGRFTISRDNAKNSLYLQMNSLRAEDTAVYYCARGGRLVWSPDYWGQGTLVTVSS
VL: DIVMTQSPDSLAVSLGERATINCKSSQSLLNSGNQKNYLTWYQQKPGQPPKLLIYWASTRESGVPDRFTGSGSGTDFTLTISSLQAEDVAVYYCQNDYSDPFTFGSGTKLEIKR
notes: also called VL-Y100D; Kabat 94
B2: H1_L1.132 (antibody, V domains shown)
VH: B1 VH
VL: B1 VL with D100Q
notes: also called VL-Y100Q; Kabat 94
B3: H1_L1.127 (antibody, V domains shown)
VH: B1 VH
VL: B1 VL with D100H
notes: also called VL-Y100H; Kabat 94
B4: H1_L1.128 (antibody, V domains shown)
VH: B1 VH
VL: B1 VL with D100L
notes: also called VL-Y100L; Kabat 94
B5: H1_L1.134 (antibody, V domains shown)
VH: B1 VH
VL: B1 VL with D100K
notes: also called VL-Y100K; Kabat 94
B6: H1_L1.129 (antibody, human IgG1, kappa, V domains shown)
VH: B1 VH
VL: B1 VL with D100W
notes: also called VL-Y100W; Kabat 94
B7: H1.189_L1.1 (XENP32805) (antibody, human IgG1, kappa, V domains shown)
VH: B1 VH with L102R, W104F, S105T
VL: B1 VL with N31H, D100Y
notes: VH substitution L110R/W112F/S113T (Xencor #); L98R/W100F/S100aT (Kabat); also called mAb C[PD1]_H1.189_L1.1_IgG1_PVA_/S267K
B8: H1.209_L1.1 (XENP32825) (antibody, human IgG1, kappa, V domains shown)
VH: B1 VH with L102F, W104F
VL: B1 VL with N31H, D100Y
notes: VH substitution L110F/W112F (Xencor #); L98F/W100F (Kabat); also called mAb C[PD1]_H1.209_L1.1_IgG1_PVA_/S267K
B9: H1.192_L1.1 (XENP32808) (antibody, human IgG1, kappa, V domains shown)
VH: B1 VH with V103L, W104F, S105A
VL: B1 VL with N31H, D100Y
notes: VH substitution V111L/W112F/S113A (Xencor #); V99L/W100F/S100aA (Kabat); also called mAb C[PD1]_H1.192_L1.1_IgG1_PVA_/S267K
B10: H1.196_L1.1 (XENP32812) (antibody, human IgG1, kappa, V domains shown)
VH: B1 VH with V103F, W104F
VL: B1 VL with N31H, D100Y
notes: VH substitution V111F/W112F (Xencor #); V99F/W100F (Kabat); also called mAb C[PD1]_H1.196_L1.1_IgG1_PVA_/S267K
B11: H1.211_L1.1 (XENP32827) (antibody, human IgG1, kappa, V domains shown)
VH: B1 VH with W104F, S105A
VL: B1 VL with N31H, D100Y
notes: VH substitution W112F/S113A (Xencor #); W100F/S100aA (Kabat); also called mAb C[PD1]_H1.211_L1.1_IgG1_PVA_/S267K
B12: H1.191_L1.1 (XENP32807) (antibody, human IgG1, kappa, V domains shown)
VH: B1 VH with V103T, W104F
VL: B1 VL with N31H, D100Y
notes: VH substitution V111T/W112F (Xencor #); V99T/W100F (Kabat); also called mAb C[PD1]_H1.191_L1.1_IgG1_PVA_/S267K
B13: H1.212_L1.1 (XENP32828) (antibody, human IgG1, kappa, V domains shown)
VH: B1 VH with R101T, L102K, W104F
VL: B1 VL with N31H, D100Y
notes: VH substitution R109T/L110K/W112F (Xencor #); R97T/L98K/W100F (Kabat); also called mAb C[PD1]_H1.212_L1.1_IgG1_PVA_/S267K
B14: H1.207_L1.1 (XENP32823) (antibody, human IgG1, kappa, V domains shown)
VH: B1 VH with W104F, S105T
VL: B1 VL with N31H, D100Y
notes: VH substitution W112F/S113T (Xencor #); W100F/S100aT (Kabat); also called mAb C[PD1]_H1.207_L1.1_IgG1_PVA_/S267K
B15: H1.202_L1.1 (XENP32818) (antibody, human IgG1, kappa, V domains shown)
VH: B1 VH with V103Q, W104F, S105T
VL: B1 VL with N31H, D100Y
notes: VH substitution V111Q/W112F/S113T (Xencor #); V99Q/W100F/S100aT (Kabat); also called mAb C[PD1]_H1.202_L1.1_IgG1_PVA_/S267K
B16: H1.193_L1.1 (XENP32809) (antibody, human IgG1, kappa, V domains shown)
VH: B1 VH with L102Q, V103L, W104F
VL: B1 VL with N31H, D100Y
notes: VH substitution L110Q/V111L/W112F (Xencor #); L98Q/V99L/W100F (Kabat); also called mAb C[PD1]_H1.193_L1.1_IgG1_PVA_/S267K
B17: H1.206_L1.1 (XENP32822) (antibody, human IgG1, kappa, V domains shown)
VH: B1 VH with W104L
VL: B1 VL with N31H, D100Y
notes: VH substitution W112L (Xencor #) but W100F in the Kabat column: the two columns disagree; also called mAb C[PD1]_H1.206_L1.1_IgG1_PVA_/S267K
B18: H1.200_L1.1 (XENP32816) (antibody, human IgG1, kappa, V domains shown)
VH: B1 VH with G100H, L102V, W104F
VL: B1 VL with N31H, D100Y
notes: VH substitution G108H/L110V/W112F (Xencor #); G96H/L98V/W100F (Kabat); also called mAb C[PD1]_H1.200_L1.1_IgG1_PVA_/S267K
B19: H1.195_L1.1 (XENP32811) (antibody, human IgG1, kappa, V domains shown)
VH: B1 VH with L102Q, W104F
VL: B1 VL with N31H, D100Y
notes: VH substitution L110Q/W112F (Xencor #); L98Q/W100F (Kabat); also called mAb C[PD1]_H1.195_L1.1_IgG1_PVA_/S267K
B20: H1.210_L1.1 (XENP32826) (antibody, human IgG1, kappa, V domains shown)
VH: B1 VH with R101W, L102H, W104F
VL: B1 VL with N31H, D100Y
notes: VH substitution R109W/L110H/W112F (Xencor #); R97W/L98H/W100F (Kabat); also called mAb C[PD1]_H1.210_L1.1_IgG1_PVA_/S267K
B21: H1.190_L1.1 (XENP32806) (antibody, human IgG1, kappa, V domains shown)
VH: B1 VH with R101A, W104F
VL: B1 VL with N31H, D100Y
notes: VH substitution R109A/W112F (Xencor #); R97A/W100F (Kabat); also called mAb C[PD1]_H1.190_L1.1_IgG1_PVA_/S267K
B22: H1.208_L1.1 (XENP32824) (antibody, human IgG1, kappa, V domains shown)
VH: B1 VH with L102S, W104F
VL: B1 VL with N31H, D100Y
notes: VH substitution L110S/W112F (Xencor #); L98S/SW100F (Kabat); also called mAb C[PD1]_H1.208_L1.1_IgG1_PVA_/S267K
B23: H1.197_L1.1 (XENP32813) (antibody, human IgG1, kappa, V domains shown)
VH: B1 VH with V103L, W104F
VL: B1 VL with N31H, D100Y
notes: VH substitution V111L/W112F (Xencor #); V99L/W100F (Kabat); also called mAb C[PD1]_H1.197_L1.1_IgG1_PVA_/S267K
B24: H1.204_L1.1 (XENP32820) (antibody, human IgG1, kappa, V domains shown)
VH: B1 VH with R101Q, L102Q, W104F, S105A
VL: B1 VL with N31H, D100Y
notes: VH substitution R109Q/L110Q/W112F/S113A (Xencor #); R97Q/L98Q/W100F/S100aA (Kabat); also called mAb C[PD1]_H1.204_L1.1_IgG1_PVA_/S267K
B25: H1.194_L1.1 (XENP32810) (antibody, human IgG1, kappa, V domains shown)
VH: B1 VH with R101Q, W104F
VL: B1 VL with N31H, D100Y
notes: VH substitution R109Q/W112F (Xencor #); R97Q/W100F (Kabat); also called mAb C[PD1]_H1.194_L1.1_IgG1_PVA_/S267K
B26: H1.199_L1.1 (XENP32815) (antibody, human IgG1, kappa, V domains shown)
VH: B1 VH with V103I, W104F, P106S
VL: B1 VL with N31H, D100Y
notes: VH substitution V111I/W112F/P114S (Xencor #); V99I/W100F/P100bS (Kabat); also called mAb C[PD1]_H1.199_L1.1_IgG1_PVA_/S267K
B27: H1.198_L1.1 (XENP32814) (antibody, human IgG1, kappa, V domains shown)
VH: B1 VH with W104F, S105N
VL: B1 VL with N31H, D100Y
notes: VH substitution W112F/S113N (Xencor #); W100F/S100aN (Kabat); also called mAb C[PD1]_H1.198_L1.1_IgG1_PVA_/S267K
B28: H1.205_L1.1 (XENP32821) (antibody, human IgG1, kappa, V domains shown)
VH: B1 VH with R101K, W104F, S105A
VL: B1 VL with N31H, D100Y
notes: VH substitution R109K/W112F/S113A (Xencor #); R97K/W100F/S100aA (Kabat); also called mAb C[PD1]_H1.205_L1.1_IgG1_PVA_/S267K

target: T1, human PD-1-His (human, UniProt Q15116 25-167, limits assumed); test: Octet
T1 construct: Antigen of the Octet assays; not shown: His tag
T1 sequence (Q15116 25-167 limits assumed): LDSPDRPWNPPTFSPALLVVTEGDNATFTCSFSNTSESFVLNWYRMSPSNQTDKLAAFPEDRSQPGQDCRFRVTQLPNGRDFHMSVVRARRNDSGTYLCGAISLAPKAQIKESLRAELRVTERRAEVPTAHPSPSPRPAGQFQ

Row | Kd | koff | kon | Binder
1 | 405 nM | 0.0264 s⁻¹ | 65100 M⁻¹ s⁻¹ | B1
2 | 37 nM | 0.00615 s⁻¹ | 166000 M⁻¹ s⁻¹ | B2
3 | 55.5 nM | 0.00741 s⁻¹ | 133000 M⁻¹ s⁻¹ | B3
4 | 186 nM | 0.0911 s⁻¹ | 490000 M⁻¹ s⁻¹ | B4
5 | 91.3 nM | 0.0153 s⁻¹ | 168000 M⁻¹ s⁻¹ | B5
6 | 9.44 nM | 0.001 s⁻¹ | 106000 M⁻¹ s⁻¹ | B6

target: T1, human PD-1-His; test: Octet (BLI), AHC capture of the bivalent mAb, PD-1 in solution

Row | koff | kon | Binder
7 | 0.00199 s⁻¹ | 83800 M⁻¹ s⁻¹ | B7
8 | 0.00489 s⁻¹ | 173000 M⁻¹ s⁻¹ | B8
9 | 0.00317 s⁻¹ | 88500 M⁻¹ s⁻¹ | B9
10 | 0.00475 s⁻¹ | 106000 M⁻¹ s⁻¹ | B10
11 | 0.00252 s⁻¹ | 133000 M⁻¹ s⁻¹ | B11
12 | 0.00382 s⁻¹ | 106000 M⁻¹ s⁻¹ | B12
13 | 0.00469 s⁻¹ | 152000 M⁻¹ s⁻¹ | B13
14 | 0.00151 s⁻¹ | 73600 M⁻¹ s⁻¹ | B14
15 | 0.00239 s⁻¹ | 104000 M⁻¹ s⁻¹ | B15
16 | 0.00391 s⁻¹ | 116000 M⁻¹ s⁻¹ | B16
17 | 0.00505 s⁻¹ | 148000 M⁻¹ s⁻¹ | B17
18 | 0.00672 s⁻¹ | 336000 M⁻¹ s⁻¹ | B18
19 | 0.00436 s⁻¹ | 104000 M⁻¹ s⁻¹ | B19
20 | 0.00244 s⁻¹ | 154000 M⁻¹ s⁻¹ | B20
21 | 0.00271 s⁻¹ | 191000 M⁻¹ s⁻¹ | B21
22 | 0.00509 s⁻¹ | 77700 M⁻¹ s⁻¹ | B22
23 | 0.00436 s⁻¹ | 123000 M⁻¹ s⁻¹ | B23
24 | 0.00404 s⁻¹ | 154000 M⁻¹ s⁻¹ | B24
25 | 0.00395 s⁻¹ | 166000 M⁻¹ s⁻¹ | B25
26 | 0.00155 s⁻¹ | 99700 M⁻¹ s⁻¹ | B26
27 | 0.00142 s⁻¹ | 78000 M⁻¹ s⁻¹ | B27
28 | 0.00296 s⁻¹ | 111000 M⁻¹ s⁻¹ | B28

target: T1, human PD-1-His; test: Octet (BLI), AHC biosensors capture the bivalent mAb, dipped into multiple concentrations of PD-1; KDapp per legend

Row | Kd | Binder
29 | 23.7 nM | B7
30 | 28.2 nM | B8
31 | 35.8 nM | B9
32 | 44.8 nM | B10
33 | 19 nM | B11
34 | 36 nM | B12
35 | 30.8 nM | B13
36 | 20.5 nM | B14
37 | 23 nM | B15
38 | 33.8 nM | B16
39 | 34.2 nM | B17
40 | 20 nM | B18
41 | 41.9 nM | B19
42 | 15.9 nM | B20
43 | 14.2 nM | B21
44 | 65.5 nM | B22
45 | 35.4 nM | B23
46 | 26.2 nM | B24
47 | 23.7 nM | B25
48 | 15.5 nM | B26
49 | 18.2 nM | B27
50 | 26.8 nM | B28
